# According to US20130331333A1 (HADASIT MEDICAL RESEARCH SERVICES AND DEVELOPMENT, published 2013):
# T1: Etk/Bmx (epithelial tyrosine kinase), wild type (UniProt P51813 1-675)
# T1 construct: Plasmids after Tsai et al. 2000; also called wt-Etk
# T1 sequence (looked up): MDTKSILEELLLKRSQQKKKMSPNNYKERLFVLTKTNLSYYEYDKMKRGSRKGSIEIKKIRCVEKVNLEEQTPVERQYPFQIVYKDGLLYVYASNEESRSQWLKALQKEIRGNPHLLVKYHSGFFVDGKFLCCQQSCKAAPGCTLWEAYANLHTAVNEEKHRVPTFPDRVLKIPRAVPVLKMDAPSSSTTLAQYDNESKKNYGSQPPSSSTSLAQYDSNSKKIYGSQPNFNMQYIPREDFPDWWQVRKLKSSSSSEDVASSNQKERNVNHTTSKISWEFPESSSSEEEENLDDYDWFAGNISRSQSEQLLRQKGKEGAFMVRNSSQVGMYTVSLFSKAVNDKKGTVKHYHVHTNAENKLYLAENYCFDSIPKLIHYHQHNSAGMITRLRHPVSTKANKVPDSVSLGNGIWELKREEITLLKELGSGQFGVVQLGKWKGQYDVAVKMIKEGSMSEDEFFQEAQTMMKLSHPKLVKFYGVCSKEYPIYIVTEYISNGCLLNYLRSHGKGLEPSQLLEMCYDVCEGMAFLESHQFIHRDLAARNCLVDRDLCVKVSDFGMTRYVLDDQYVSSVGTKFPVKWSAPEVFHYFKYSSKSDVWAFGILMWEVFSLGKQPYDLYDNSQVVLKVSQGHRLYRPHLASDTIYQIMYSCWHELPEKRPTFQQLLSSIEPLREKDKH
# T2: HA-tagged wt hPar1 (human, UniProt P25116 42-425)
# T2 construct: whole, on cells; Tested in lysates of transfected cells; also called HA-wt hPar1; HA-wthPar1; not shown: HA tag added downstream of the ATG start codon
# T2 sequence (looked up): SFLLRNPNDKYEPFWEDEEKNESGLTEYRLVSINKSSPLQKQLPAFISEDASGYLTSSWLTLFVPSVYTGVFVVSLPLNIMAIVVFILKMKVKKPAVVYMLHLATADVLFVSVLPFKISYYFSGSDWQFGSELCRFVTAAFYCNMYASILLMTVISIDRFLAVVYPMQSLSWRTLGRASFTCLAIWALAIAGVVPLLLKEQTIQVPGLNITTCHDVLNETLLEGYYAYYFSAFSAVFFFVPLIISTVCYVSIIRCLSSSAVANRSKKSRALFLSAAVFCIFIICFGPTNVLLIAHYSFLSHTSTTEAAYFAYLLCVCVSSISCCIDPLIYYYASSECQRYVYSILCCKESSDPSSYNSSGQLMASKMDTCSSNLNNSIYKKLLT
# T3: wild-type protease-activated receptor 2 (wt hPar2) (human, UniProt P55085 37-397)
# T3 construct: whole, on cells; Species read from the name hPar2
# T3 sequence (looked up): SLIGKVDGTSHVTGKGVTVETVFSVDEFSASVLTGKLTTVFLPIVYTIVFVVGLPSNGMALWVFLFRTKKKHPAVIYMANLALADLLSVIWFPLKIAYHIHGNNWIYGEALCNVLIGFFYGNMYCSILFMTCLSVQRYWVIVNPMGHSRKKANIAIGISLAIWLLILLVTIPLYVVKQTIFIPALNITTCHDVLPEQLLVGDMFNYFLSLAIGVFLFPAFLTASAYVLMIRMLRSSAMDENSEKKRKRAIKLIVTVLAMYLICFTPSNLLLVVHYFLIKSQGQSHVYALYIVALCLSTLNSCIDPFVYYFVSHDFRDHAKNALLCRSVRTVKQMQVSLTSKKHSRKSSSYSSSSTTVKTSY
# B1: HA-tagged mutant hPar1-7A (receptor, human, UniProt P25116 42-425, looked up)
# chain: SFLLRNPNDKYEPFWEDEEKNESGLTEYRLVSINKSSPLQKQLPAFISEDASGYLTSSWLTLFVPSVYTGVFVVSLPLNIMAIVVFILKMKVKKPAVVYMLHLATADVLFVSVLPFKISYYFSGSDWQFGSELCRFVTAAFYCNMYASILLMTVISIDRFLAVVYPMQSLSWRTLGRASFTCLAIWALAIAGVVPLLLKEQTIQVPGLNITTCHDVLNETLLEGYYAYYFSAFSAVFFFVPLIISTVCYVSIIRCLSSSAVANRSKKSRALFLSAAVFCIFIICFGPTNVLLIAHYSFLSHTSTTEAAYFAYLLCVCVSSISCCIDPLIYYYASSEAAAAAAAILCCKESSDPSSYNSSGQLMASKMDTCSSNLNNSIYKKLLT
# notes: whole, on cells; Tested in lysates of transfected cells; also called HA-hPar1-7A; PAR1A7; not shown: HA tag
# Columns and labels:
# [1] = target: T1, Etk/Bmx (epithelial tyrosine kinase), …; test: co-immunoprecipitation with anti-HA, anti-Bmx blot, MCF7 clones after PAR1 activation
# Procedure: After overnight incubation, Protein A-Sepharose beads (Amersham Pharmacia Biotech, Buckinghamshire, UK) were added to the suspension (50 μl), which was rotated at 4° C. for 1 h. The immunocomplexes were eluted and run electrophoretically on a 10% SDS-PAGE gel, followed by transfer to an Immobilon-P membrane (Millipore). Membranes were blocked and probed with 1 μg/ml amounts of the appropriate antibodies as follows: anti-PAR₁ thrombin receptor mAb, (ATAP, from Santa Cruz, 1:1000); anti-Shc (BD, 1:2000); anti-Bmx (Transduction Laboratories, 1:1000) or anti-PY (Upstate 4G10, 1:2500), suspended in 3% BSA in 10 mM Tris-HCl, pH 7.5, 100 mM NaCl, and 0.5% Tween-20. After washes the blots were incubated with secondary antibodies conjugated to horseradish-peroxidase. Immunoreactive bands were detected by enhanced chemiluminescence (ECL). Membranes were stripped and incubated with anti-IP antibodies to ensure equal protein load.
# Based on the competition assay mutated hPar1 constructs with successive replacement of seven residues (378-384; CQRYVYS) were prepared. […] The clones expressing either HA-tagged wt hPar1 or a mutant construct of HA-hPar1-7A were activated and further analyzed for co-immunoprecipitation (IP) of PAR₁ with Etk/Bmx. […] The blots were detected by anti-Bmx (Transduction Laboratories, BD Biosciences, CA) for the identification of Etk/Bmx-associated PAR₁. […]
# [2] = target: Akt (PKB) (UniProt P31749 1-480, limits assumed); test: co-immunoprecipitation of Akt and PAR1 in transfected HU cells
# Chain of Akt (PKB) (P31749 whole entry): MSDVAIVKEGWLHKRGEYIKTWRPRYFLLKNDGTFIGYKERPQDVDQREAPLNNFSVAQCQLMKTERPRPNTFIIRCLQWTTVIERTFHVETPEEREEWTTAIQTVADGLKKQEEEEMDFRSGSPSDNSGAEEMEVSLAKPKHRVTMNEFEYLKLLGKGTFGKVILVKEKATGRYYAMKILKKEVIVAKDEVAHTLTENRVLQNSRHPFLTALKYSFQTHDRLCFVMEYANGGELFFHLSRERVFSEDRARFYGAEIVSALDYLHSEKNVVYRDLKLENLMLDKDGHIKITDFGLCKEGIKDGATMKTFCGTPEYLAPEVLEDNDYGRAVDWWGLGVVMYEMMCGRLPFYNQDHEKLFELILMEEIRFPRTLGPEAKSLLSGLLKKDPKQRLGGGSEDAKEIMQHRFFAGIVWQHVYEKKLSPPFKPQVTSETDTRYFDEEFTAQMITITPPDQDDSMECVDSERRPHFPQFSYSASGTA
# Procedure: Western blot and immunoprecipitation analysis: Cells were activated with agonist peptide […] (SEQ ID NO: 35) for the indicated periods of time and solubilized in lysis buffer containing 10 mM Tris-HCl, pH 7.4, 150 mM NaCl, 1 mM EDTA, 1% TritonX-100, and protease inhibitors ([…] aprotinin, 1 mM phenylmethylsulfonylfluoride, and […] leupeptin) at 4° C. for 30 min. The cell lysates were subjected to centrifugation at 12,000 rpm at 4° C. for 20 min. We used 400 μg of the supernatants with anti-PAR₁ (ATAP, Santa Cruz, Calif. 1 μg), anti-HA (anti-HA sc-7392; Santa Cruz, Calif.), anti-Shc or Etk/Bmx antibodies (10 μg/ml). After overnight incubation, Protein A-Sepharose beads (Amersham Pharmacia Biotech, Buckinghamshire, UK) were added to the suspension (50 μl), which was rotated at 4° C. for 1 h. The immunocomplexes were eluted and run electrophoretically on a 10% SDS-PAGE gel, followed by transfer to an Immobilon-P membrane (Millipore). […] Immunoreactive bands were detected by enhanced chemiluminescence (ECL). […]
# (§1) Namely, without wishing to be bound by theory the PAR₁-C-tail appears to be an anchor region for association with PH-domain containing proteins. For this purpose, the association between Akt (which is ubiquitously expressed in the cells) and PAR₁ was analyzed, following activation. […]
# [3] = target: T2, HA-tagged wt hPar1; test: lysates of cells transfected with HA-tag-hPar1 applied on GST-PH-Vav3
# Procedure: GST fusion protein columns. Fusion proteins were purified from transformed Escherichia coli bacteria that had been stimulated with isopropyl-β-D-thio-galactopyranoside (IPTG) at a concentration of […]. Bacteria were lysed according to published procedures, and then immobilized on glutathione Sepharose beads (Pharmacia). Briefly, MDA-MB-435 cell lysates were applied to GST-PAR1C-tail or GST control columns. After 2 h binding periods to the designated protein/s cell lysates to the columns, a washing step was performed. The washes (×3) were carried out using a “wash buffer” including: 100 mM NaCL, 20 mM EDTA, 10 mM Tris, pH 8.0 and 1% Triton ×100. This step was performed in order to wash out all non-specific proteins, leaving the GST-PAR₁-C-tail column firmly bound to targeted cell lysate proteins. Next, elution of bound proteins was performed via the addition of gel “sample buffer” and appropriate boiling. The samples were run electrophoretically on SDS-PAGE gels, followed by immunoblotting with the indicated antibodies and ECL detection. GST-PH-Etk/Bmx. The PH domain in Etk/Bmx was bound to GST column as previously described (Chen R, et al. (2001) Nat Cell Biol. 3: 439-444).
# Next, a panel of cell-lines was transfected with HA-tag-hPar1. Cell lysates were prepared and applied onto GST-PH-Akt or GST-PH-Vav₃. […]
# [4] = target: T3, wild-type protease-activated receptor 2 …; test: cell lysates applied on GST immobilized PH-domain columns (PAR2)
# [5] = target: B1; test: cell lysates applied on GST-PH-Vav3
# Procedure: GST fusion protein columns. Fusion proteins were purified from transformed Escherichia coli bacteria that had been stimulated with isopropyl-β-D-thio-galactopyranoside (IPTG) at a concentration of […]. Bacteria were lysed according to published procedures, and then immobilized on glutathione Sepharose beads (Pharmacia). Briefly, MDA-MB-435 cell lysates were applied to GST-PAR1C-tail or GST control columns. After 2 h binding periods to the designated protein/s cell lysates to the columns, a washing step was performed. The washes (×3) were carried out using a “wash buffer” including: 100 mM NaCL, 20 mM EDTA, 10 mM Tris, pH 8.0 and 1% Triton ×100. This step was performed in order to wash out all non-specific proteins, leaving the GST-PAR₁-C-tail column firmly bound to targeted cell lysate proteins. Next, elution of bound proteins was performed via the addition of gel “sample buffer” and appropriate boiling. The samples were run electrophoretically on SDS-PAGE gels, followed by immunoblotting with the indicated antibodies and ECL detection. GST-PH-Etk/Bmx. […]
# as §1
binding result [1],binding result [2],binding result [3],binding result [4],binding result [5],Binder
no binding,no binding,,,,B1
,,binds,binds,no binding,"GST-PH-Vav3 (other, UniProt Q9UKW4 400-502, looked up, domain: PH domain; also called PH-domain-Vav3; Vav3-PH-domain; not shown: GST tag) RPQGDGEIRITTLDKHTKQERHIFLFDLAVIVCKRKGDNYEMKEIIDLQQYKIANNPTTDKENKKWSYGFYLIHTQGQNGLEFYCKTKDLKKKWLEQFEMALS"
